B1: anti-PD-1 (Pembro)/VEGF (G631) heterodimeric antibody (bispecific antibody, human IgG1, kappa, N297A)
heavy 1: QVQLVQSGVEVKKPGASVKVSCKASGYTFTNYYMYWVRQAPGQGLEWMGGINPSNGGTNFNEKFKNRVTLTTDSSTTTAYMELKSLQFDDTAVYYCARRDYRFDMGFDYWGQGTTVTVSSASTKGPSVFPLAPSSKSTSGGTAALGCLVKDYFPEPVTVSWNSGALTSGVHTFPAVLQSSGLYSLSSVVTVPSSSLGTQTYICNVNHKPSNTKVDKKVEPKSCDKTHTCPPCPAPELLGGPSVFLFPPKPKDTLMISRTPEVTCVVVDVSHEDPEVKFNWYVDGVEVHNAKTKPREEQYASTYRVVSVLTVLHQDWLNGKEYKCKVSNKALPAPIEKTISKAKGQPREPQVYTLPPSRDELTKNQVSLLCLVKGFYPSDIAVEWESNGQPENNYKTTPPVLRSDGSFFLYSKLTVDKSRWQQGNVFSCSVMHEALHNHYTQKSLSLSPGK
light 1: EIVLTQSPATLSLSPGERATLSCRASKGVSTSGYSYLHWYQQKPGQAPRLLIYLASYLESGVPARFSGSGSGTDFTLTISSLEPEDFAVYYCQHSRDLPLTFGGGTKVEIKRTVAAPSVFIFPPSDEQLKSGTASVVCLLNNFYPREAKVQWKVDNALQSGNSQESVTEQDSKDSTYSLSSTLTLSKADYEKHKVYACEVTHQGLSSPVTKSFNRGEC
heavy 2: EVQLVESGGGLVQPGGSLRLSCAASGFTISDYWIHWVRQAPGKGLEWVAGITPAGGYTYYADSVKGRFTISADTSKNTAYLQMNSLRAEDTAVYYCARFVFFLPYAMDYWGQGTLVTVSSASTKGPSVFPLAPSSKSTSGGTAALGCLVKDYFPEPVTVSWNSGALTSGVHTFPAVLQSSGLYSLSSVVTVPSSSLGTQTYICNVNHKPSNTKVDKKVEPKSCDKTHTCPPCPAPELLGGPSVFLFPPKPKDTLMISRTPEVTCVVVDVSHEDPEVKFNWYVDGVEVHNAKTKPREEQYASTYRVVSVLTVLHQDWLNGKEYKCKVSNKALPAPIEKTISKAKGQPREPQVYTEPPSRDELTKNQVSLTCLVKGFYPSDIAVEWESNGQPENNYKTTPPVLDSDGSFFLLSVLTVDKSRWQQGNVFSCSVMHEALHNHYTQKSLSLSPGK
light 2: not shown
notes: Heterodimer of two half antibodies; it is not spelled out for this molecule; also called anti-PD-1 (Pembro)/VEGF (G631) heterodimer antibody
B2: anti-PD-1 (BJHM)/VEGF (G631) heterodimeric antibody (bispecific antibody, human IgG1, kappa, N297A)
heavy 1: EVNLVESGGGLVQPGGSLRLSCAASGFTFSSYGMSWVRQAPGKGLEWVASISGGGRYTYYPDSMKGRFTISRDNSKNNLYLQMNSLRAEDTAVYYCVYEYFYTMDYWGQGTLVTVSSASTKGPSVFPLAPSSKSTSGGTAALGCLVKDYFPEPVTVSWNSGALTSGVHTFPAVLQSSGLYSLSSVVTVPSSSLGTQTYICNVNHKPSNTKVDKKVEPKSCDKTHTCPPCPAPELLGGPSVFLFPPKPKDTLMISRTPEVTCVVVDVSHEDPEVKFNWYVDGVEVHNAKTKPREEQYASTYRVVSVLTVLHQDWLNGKEYKCKVSNKALPAPIEKTISKAKGQPREPQVYTLPPSRDELTKNQVSLLCLVKGFYPSDIAVEWESNGQPENNYKTTPPVLRSDGSFFLYSKLTVDKSRWQQGNVFSCSVMHEALHNHYTQKSLSLSPGK
light 1: DIVLTQSPATLSLSPGERATLSCRASQSISNNLHWYQQKPGQAPRLLIRFASQSISGIPARFSGSGSGTDFTLTISSLEPEDFAVYFCQQSDNWPLTFGGGTKVEIKRTVAAPSVFIFPPSDEQLKSGTASVVCLLNNFYPREAKVQWKVDNALQSGNSQESVTEQDSKDSTYSLSSTLTLSKADYEKHKVYACEVTHQGLSSPVTKSFNRGEC
heavy 2: B1 heavy 2
light 2: not shown
B3: PD-1 (BJHM) monoclonal antibody (antibody, V domains shown)
VH: EVNLVESGGGLVQPGGSLRLSCAASGFTFSSYGMSWVRQAPGKGLEWVASISGGGRYTYYPDSMKGRFTISRDNSKNNLYLQMNSLRAEDTAVYYCVYEYFYTMDYWGQGTLVTVSS
VL: DIVLTQSPATLSLSPGERATLSCRASQSISNNLHWYQQKPGQAPRLLIRFASQSISGIPARFSGSGSGTDFTLTISSLEPEDFAVYFCQQSDNWPLTFGGGTKVEIK
notes: Control monoclonal antibody; also called anti-human PD-1 antibody PD-1(BJHM)
B4: anti PD-1(BJHM)/VEGF(Bevaci) heterodimeric antibody (bispecific antibody, human IgG1, kappa, N297A)
heavy 1: B2 heavy 1
light 1: B2 light 1
heavy 2: EVQLVESGGGLVQPGGSLRLSCAASGYTFTNYGMNWVRQAPGKGLEWVGWINTYTGEPTYAADFKRRFTFSLDTSKSTAYLQMNSLRAEDTAVYYCAKYPHYYGSSHWYFDVWGQGTLVTVSSASTKGPSVFPLAPSSKSTSGGTAALGCLVKDYFPEPVTVSWNSGALTSGVHTFPAVLQSSGLYSLSSVVTVPSSSLGTQTYICNVNHKPSNTKVDKKVEPKSCDKTHTCPPCPAPELLGGPSVFLFPPKPKDTLMISRTPEVTCVVVDVSHEDPEVKFNWYVDGVEVHNAKTKPREEQYASTYRVVSVLTVLHQDWLNGKEYKCKVSNKALPAPIEKTISKAKGQPREPQVYTEPPSRDELTKNQVSLTCLVKGFYPSDIAVEWESNGQPENNYKTTPPVLDSDGSFFLLSVLTVDKSRWQQGNVFSCSVMHEALHNHYTQKSLSLSPGK
light 2: not shown

Assays:
[1] = biological target: T1, Recombinant human PD-1 (Beijing Sino Biological Inc., Catalog No. 10377-H08H) (human, UniProt Q15116 25-167); assay: ELISA, human PD-1 coated on the plate, anti-human IgG-HRP detection
T1 construct: Bought recombinant protein
T1 sequence (Q15116 25-167 limits assumed): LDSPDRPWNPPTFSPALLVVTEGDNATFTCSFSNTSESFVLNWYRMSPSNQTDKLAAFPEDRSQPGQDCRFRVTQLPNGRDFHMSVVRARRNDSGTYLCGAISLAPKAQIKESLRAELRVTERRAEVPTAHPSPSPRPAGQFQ

[2] = biological target: T1, Recombinant human PD-1 (Beijing Sino …); assay: ELISA, human PD-1 coated on the plate, anti-human IgG-HRP detection; control

| Binder | binding result [1] | binding result [2] |
| --- | --- | --- |
| B1 | binds | – |
| B2 | binds | – |
| B3 | – | binds |
| B4 | binds | – |

Source: patent US20210040193A1 (BEIJING HANMI PHARMACEUTICAL, published 2021)
